Reference: US20030130184, “Methods of inducing cell death” (The University of Bristol, published 2003)

Molecular target: T1, HPV16 E2Ct (E2 DNA binding domain) (Human papillomavirus type 16, UniProt P0DKA0 SEQ:1-87)
T1 chain: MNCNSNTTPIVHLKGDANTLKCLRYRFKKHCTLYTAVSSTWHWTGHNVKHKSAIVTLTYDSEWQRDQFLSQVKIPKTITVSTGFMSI
Test: EMSA; 10, 50, 250 nM protein; binds tightly; 20 mM HEPES pH 7.9, 25 mM KCl, poly[d(I-C)], 20 C; refolded E2Ct also binds (FIG. 7a)
Conditions: chain copies: 2 (stated, dimer); label: 32P 5' end

B1: HPV16 E2 site 1, E2(1) (dsDNA)
DNA 1: TTGAACCGAAACCGGTTAGT
DNA 2: ACTAACCGGTTTCGGTTCAA
B1: binds.
